The supplement of paper PMC9170038

System: K4 kissing-loop RNA reporter
Test: apparent KD of K4 kissing-loop reporter; higher = weaker reporter binding
Details: Eterna round: R107
Protocol: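 RNA-MaP round R107: designed RNA switches with theophylline, tryptophan, arginine or FMN aptamers are transcribed on-chip within common flanks. They are titrated with a labelled K4 kissing-loop RNA reporter in RNA-MaP buffer (100 mM Tris pH 7.5, 80 mM KCl, 4 mM MgCl2), without ligand or with the indicated ligand. Median apparent KD per design.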

[1] = input ligand: theophylline 20 uM
[2] = input ligand: tryptophan 2.4 mM
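Further: bound reporter read as fluorescence of individual clusters on recovered sequencing chips by microscopy, with normalized cluster intensities fitted with a binding model.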

Sequence	apparent KD of K4 kissing-loop reporter (input ligand: FMN 200 uM)	apparent KD of K4 kissing-loop reporter (input ligand: arginine 13.2 mM)	apparent KD of K4 kissing-loop reporter (input ligand: none)	apparent KD of K4 kissing-loop reporter [1]	apparent KD of K4 kissing-loop reporter [2]
CCGCUGCCCUCAGGAUAUUAAGUAUUAGUGAUGUUAGUAAACCGAUGGCGAAAGCCAUCGGUAUGUUGAGAAGGGAGGGUAGCGG [whbob_SS_FMNB__2th199]	0.37 µM	0.627 µM	0.662 µM	1.14 µM	0.55 µM
CCGGGCGGCCGAAGGAGCGGGCGGACCCGAGUGAUGUUCGGGUGGACCGUGAGGUCCGGUGCCCAGGUAGGUCGCGGUUCCGCCC [#2 Same State - Arginine B Attempt #5 (HarryS)]	0.117 µM	0.123 µM	0.129 µM	0.118 µM	0.12 µM
CCUAGUCGGAUACUCAAUCCAAUGCGAGAUACCAGCGGUCUUACGCGCCCUUGGCAGCUCAUAAUGAUGAACCAGUGAUGUUGGG [theeternabot_sameState_KL_Theo_A_40]	0.423 µM	0.268 µM	0.397 µM	0.446 µM	0.368 µM
CCUAUCUCAUACGAUACCAGUCCGAGUGAUGUUCGAAAAUAAAUAAAUUUGCCAUAUAAUGACCCUUGGCAGCGUAUGGGAUAGG [Ex Theophylline B K4 11]	0.354 µM	0.296 µM	0.351 µM	0.4 µM	0.3 µM
CCUAUCUCAUACGAUACCAGUGAAUUAAUAUUUAUAAGCAGUGAUGUUGCAUUCCAAGUACACCCUUGGCAGCGUAUGGGAUAGG [Ex Theophylline B K4 20]	0.147 µM	0.151 µM	0.151 µM	0.159 µM	0.12 µM
CCUAUCUGUUACGAUACCAGUCAAAGAUAUUUUAUCAAUGCCCUCACCGAGUGAUGUUCGGACCCUUGGCAGCGUCUGGGAUAGG [pnnbmullin]	0.187 µM	0.138 µM	0.185 µM	0.119 µM	0.15 µM
CCUGAUCCUAGUGAUGUUAGGUCCAACGGCCGAGGACCGGUACGGCCGCCACUCGUCAAUUGGAAACAGCCCACGGGCACCGGGU [theeternabot_sameState_KL_Trp_A_19]	0.825 µM	0.502 µM	0.906 µM	0.814 µM	0.783 µM
CGAAAUAGAACGGCCGCCACUGUAAGUCCUGACAGUAAGUGAUGUUUGAAAGAUUCGGGUAUUCGCAGGACCGGGUUCGUCAUAA [theeternabot_sameState_KL_Trp_B_13]	0.886 µM	0.844 µM	1.26 µM	0.759 µM	0.754 µM
CGAAGAGAGUGAUGUUCUCUAGGCAAAAGAAAGGAUAUAAUGUUUGUUAGAAGGUUCGGAAAAUGGAACGUCGGCCCGUACAACC [theeternabot_exclusion_KL_FMN_A_18]	0.151 µM	0.129 µM	0.139 µM	0.127 µM	0.121 µM
CGAGUGAUGUUCGAAGAGUUGUUAAGCGAUACCAGCUAGGAAACUGGCCCUUGGCAGCGUAAUAAGUUAAUAAAUAAAUGAUCAC [whbob_Ex_Theo_A_th64]	0.376 µM	0.411 µM	0.36 µM	0.449 µM	0.301 µM
CGAGUGAUGUUCGUUCGUUUAUUUCGUUGACAGGAUAUGCGGAAACGCAGAAGGGUCACCUUUGAGUUAACGGAAUUUACGUUAU [Ex FMN A 27]	0.614 µM	0.487 µM	0.587 µM	0.552 µM	0.546 µM
CGAGUGAUGUUCGUUCGUUUAUUUGGGUGACAGGAUAUGCGGAAACGCAGAAGGGUCACCUUCGGGUUACCCGAAUUAACGUUAU [#09 K4 FMN A Exclusion]	0.724 µM	0.52 µM	0.688 µM	0.587 µM	0.717 µM
CGCAAGCAGCCAGUGAUGUUGGCCGCCUUGCGAGGACCGGUACGGCCGCCACUCGAAGGCGGCUACUGGUAAACCGCCUAACGGA [Onzaenla]	0.0933 µM	0.0836 µM	0.0929 µM	0.0854 µM	0.0964 µM
CGCAAGCAGCCAGUGAUGUUGGCCGCCUUGCGAGGACCGGUACGGCCGCCACUCGAAGGCGGCUAGUAGUAGUCUGUCUAACGGA [KL-XTryp-A16]	0.104 µM	0.107 µM	0.112 µM	0.074 µM	0.184 µM
CGCAAGCAGCCAGUGAUGUUGGCUGCCUUGCGAGGACCGGUACGGCCGCCACUCGAAGGCAGCUACUGGUAAACCGUCUAACGGA [Atere]	0.117 µM	0.105 µM	0.111 µM	0.0907 µM	0.25 µM
CGCAAUCGAACUGAUACCAGUCAUAAUGGCUGAGAAGCACGAGUGAUGUUCGUAACGAAUGACCCUUGGCAGCAGUUCGAUUGCG [Theo B SS t8]	0.706 µM	0.807 µM	0.944 µM	0.33 µM	0.839 µM
CGCAGUGAUGUUGCGAACAUAAUGCAUUCAGAGGAUAUUCGUUUGGGAAGAAGGCUGAAUCGUUUUUCGAGUGAUGUUUGAGGAA [Same State FMN A GF 18]	0.106 µM	0.0882 µM	0.114 µM	0.091 µM	0.0946 µM
CGCAGUGAUGUUGCGAGUAGAUACAGGGAAGGAGCGCCGUAGUAGGCAGGUAGGUCGCCCACGCAGUGAUGUUGCGUCAUAGGGU [Exclusion Arginine A GF 5]	0.104 µM	0.0918 µM	0.0971 µM	0.116 µM	0.0876 µM
CGCAGUGAUGUUGCGAGUAGCUACAGGGAAGGAGCGCGCUAGUGCGCAGGUAGGUCGCCCACGCAGUGAUGUUGCGUCAUAGGGU [Exclusion Arg A GF8]	0.139 µM	0.114 µM	0.114 µM	0.137 µM	0.109 µM
CGCAGUGAUGUUGCUAUUAUUCUUGAUUAACGAGGACCGGUACGGCCGCCACUCGAUUUCUAUCUGAUCCAGUGUUUUGUUGAGU [#22 K4 Tryptophan A Exclusion]	0.296 µM	0.364 µM	0.396 µM	0.36 µM	0.182 µM
CGCAGUGAUGUUGCUAUUAUUCUUGGUUAACGAGGACCGGUACGGCCGCCACUCGGUUUCUAUCUAAUCCAGUGUUUUUUUGAGU [#24 K4 Tryptophan A Exclusion]	0.425 µM	0.506 µM	0.556 µM	0.573 µM	0.246 µM

Sequence	apparent KD of K4 kissing-loop reporter (input ligand: FMN 200 uM)	apparent KD of K4 kissing-loop reporter (input ligand: arginine 13.2 mM)	apparent KD of K4 kissing-loop reporter (input ligand: none)	apparent KD of K4 kissing-loop reporter [1]	apparent KD of K4 kissing-loop reporter [2]
CGCCGCAAGGCGAGCGCUCCCACUCCGGAAGGAGCGCCCGUAAGGGCAGGUAGGUCGCCGGAGUGAUGUUCCGGUGGAGGGCUCG [#2 Exclusion - Arginine A Attempt #14 (Inspired by Omei)]	0.226 µM	0.224 µM	0.469 µM	0.033 µM	0.184 µM
CGCCGUAAGGCGAGCGCUCCCACUCCGGAAGGAGCGCCCGGAAGGGCAGGUAGGUCGCCGGAGUGAUGUUCCGGUGGAGGGCUCG [#2 Exclusion - Arginine A Attempt #12 (Inspired by Omei)]	0.229 µM	0.144 µM	0.282 µM	0.221 µM	0.317 µM
CGCCGUAAGGCGGUCGCUCCCACUCCGGAAGGAGCGCCCGUAAGGGCAGGUAGGUCGCCGGAGUGAUGUUCCGGUGGAGGGACCG [#2 Exclusion - Arginine A Attempt #8 (Inspired by Omei)]	0.323 µM	0.274 µM	0.339 µM	0.352 µM	0.33 µM
CGCGCGCGCUUGAGAGGGCGCGCGCGAAGUGAGGAUAUUUAGGGAGAAAGAAGGCACUAUAAAAUAUAGUGAUGUUAUAUAAGGG [SSFMNA.E]	1.18 µM	0.24 µM	0.468 µM	2.79 µM	0.441 µM
CGCGCGCGUUGAGAGGCGCGCGCGAAUGAUACCAGUAUAUAAGAAUACCCUUGGCAGCAUAAGAAAGAUAUAGUGAUGUUGUAUA [SSTheophA.E]	0.0673 µM	0.264 µM	0.293 µM	0.466 µM	0.188 µM
CGCGCGCGUUUGAGAGGGCGCGCGCGAAGUGAGGAUAUUUAGGGAGAAAGAAGGCACUAUAAAAUAUAGUGAUGUUAUAUAAGGG [SSFMNA.F]	0.603 µM	0.111 µM	0.288 µM	0.469 µM	0.186 µM
CGCUCGAAAAUUAAGUGAGUGAUGUUCACUCGAGGACCGGUACGGCCGCCACUCGUCUUACGUUGAGACACUGCUCGUACUCAUA [theeternabot_exclusion_KL_Trp_A_38]	0.683 µM	0.674 µM	0.9 µM	0.722 µM	0.498 µM
CGGAUGUAGUGAUGUUAUAUAAGAUGUAGACGAGGACCGGUACGGCCGCCACUCGAAACGGCUACUAGCGCGUUGCGAGGUGUGC [ExTryptoA.CI]	0.952 µM	0.46 µM	0.96 µM	0.674 µM	0.514 µM
CGGAUGUAGUGAUGUUAUAUUAGAUGUAGACGAGGACCGGUACGGCCGCCACUCGAAACGGCUGCUAGCGCGUUGCGAGGUGUGC [ExTryptoA.Ck]	0.341 µM	0.525 µM	1.12 µM	0.419 µM	0.456 µM
CGGAUGUAGUGAUGUUAUAUUAGAUGUAGACGAGGACCGGUACGGCCGCCACUCGUGAUGGCUGCUAGCACGUUUCGAUGUUUGC [ExTryptoA.Cq]	0.669 µM	0.483 µM	0.624 µM	0.611 µM	0.434 µM
CGGCCCGGCGCGGCCGCCACUGUGCCUGGGCGCUUGCCGAGUGAUGUUCGUCGGCGGUCGGGUGGCAGGACCGGGCGCCGGUCCG [BDazzled - #26 SS Tryptophan B]	0.137 µM	0.129 µM	0.131 µM	0.123 µM	0.135 µM
CGGCGCGGCGCGGCCGCCACUGCGCCUGGGUGCUCGCCGAGUGAUGUUCGUCGGCGGUUGGGUGGCAGGACCGGGUGCCGGCCCG [BDazzled - #18 SS Tryptophan B]	0.93 µM	0.703 µM	0.827 µM	1.03 µM	0.768 µM
CGGCUCACGCAAGGAUAUCGCAGUGAGUACUCUGGAAGAAUAAAGCUAGUGAUGUUAGGUUAGAAGCGAGAAGGUGCGGCCGUAU [theeternabot_sameState_KL_FMN_B_30]	0.127 µM	0.0965 µM	0.128 µM	0.197 µM	0.137 µM
CGGUAGUCUAUAGGGUCCAGUGAUGUUGGACAGGAUAUGCUACGCCGCAGAAGGGUCCAACUGGUUGUGAAGUUGGCUACUAGGC [Somaaxe]	0.144 µM	0.2 µM	0.168 µM	0.147 µM	0.189 µM
CGUACGGUUUCUUUCUUUCCGUACGAGUGCCGAGGACCGGUACGGCCGCCACUCGCUACAGCCUAGUGAUGUUAGGCAUUUCUUU	0.104 µM	0.11 µM	0.105 µM	0.146 µM	0.0941 µM
CGUAGUUGGGCGGCCGCCACUUGAAAAGCUUUGCCAAAGGCAGAGCUCUAGAGUGAUGUUCUGGCAAGGACCGGGUCCAACUACA [#03 K4 Tryptophan B Same State]	0.869 µM	0.719 µM	0.872 µM	0.59 µM	0.358 µM
CGUAGUUGGGCGGCCGCCACUUGAACAGCUUUGCCAAAGGCAGAGCUCUAGAGUGAUGUUCUGGCAAGGACCGGGUCCAACUACA [#02 K4 Tryptophan B Same State]	1.27 µM	0.777 µM	1.24 µM	0.822 µM	0.423 µM
CUAGAAGUGAUGUUUCAUAGUAAAUCUGAUACCAGCAUUAAACCCUGCCCUUGGCAGCAGAAUGGGCUGAUAGACUCCUGCAGCU [theeternabot_sameState_KL_Theo_A_36]	0.22 µM	0.199 µM	0.228 µM	0.208 µM	0.182 µM
CUAGGCCCUCGGCGGGACAUUGCGUGGGAAGGAGCGCAGAUAACUGCAGGUAGGUCGCCCAGUGAUGUUGGGCGAAUAUUGGUCA [Esinabige]	0.102 µM	0.0983 µM	0.124 µM	0.12 µM	0.11 µM
CUAUCCCGCCGUGUAUGUAGUAUACGGUGCCGAGGACCGGUACGGCCGCCACUCGAUAAGCUUUGUCGGAGUGAUGUUCCGACCG [Soleesen]	0.277 µM	0.181 µM	0.213 µM	0.263 µM	0.265 µM
CUCGAGUGAUGUUCGAUUAUGUAUACAGAUACCAGUGAAUUUUAACACCCUUGGCAGCUGGUAGAAUCAUUUUAAUUUUAACUAG [JR_SSTheophyA_Sub021]	0.201 µM	0.256 µM	0.221 µM	0.268 µM	0.162 µM
